Measurements: article PMC6957483, “Anosmin-1 activates vascular endothelial growth factor receptor and its related signaling pathway for olfactory bulb angiogenesis” (Scientific Reports, 2020)

Biological target: T1, Recombinant human VEGFR2-Fc (human, UniProt P35968 20-764)
T1 construct: VEGF receptor-2 (VEGFR2, KDR), human; Probably the extracellular domain fused to an IgG Fc; In the functional rows this id stands for the whole VEGFR2 on HUVECs or PAE/KDR cells; also called VEGF receptor-2; KDR; source: bought: BioLegend
Assay: SPR; BIAcore, 20 °C; VEGFR2-Fc (50 µg/mL in 10 mM sodium acetate, pH 4.5) coupled to an EDC/NHS-activated CM5 chip; anosmin-1, its mutant or VEGF-A injected in PBS with 0.35 M NaCl at 30 µL/min; affinity calculated from the on- and off-rates
Conditions: both partners purified

T1 sequence (P35968 20-764): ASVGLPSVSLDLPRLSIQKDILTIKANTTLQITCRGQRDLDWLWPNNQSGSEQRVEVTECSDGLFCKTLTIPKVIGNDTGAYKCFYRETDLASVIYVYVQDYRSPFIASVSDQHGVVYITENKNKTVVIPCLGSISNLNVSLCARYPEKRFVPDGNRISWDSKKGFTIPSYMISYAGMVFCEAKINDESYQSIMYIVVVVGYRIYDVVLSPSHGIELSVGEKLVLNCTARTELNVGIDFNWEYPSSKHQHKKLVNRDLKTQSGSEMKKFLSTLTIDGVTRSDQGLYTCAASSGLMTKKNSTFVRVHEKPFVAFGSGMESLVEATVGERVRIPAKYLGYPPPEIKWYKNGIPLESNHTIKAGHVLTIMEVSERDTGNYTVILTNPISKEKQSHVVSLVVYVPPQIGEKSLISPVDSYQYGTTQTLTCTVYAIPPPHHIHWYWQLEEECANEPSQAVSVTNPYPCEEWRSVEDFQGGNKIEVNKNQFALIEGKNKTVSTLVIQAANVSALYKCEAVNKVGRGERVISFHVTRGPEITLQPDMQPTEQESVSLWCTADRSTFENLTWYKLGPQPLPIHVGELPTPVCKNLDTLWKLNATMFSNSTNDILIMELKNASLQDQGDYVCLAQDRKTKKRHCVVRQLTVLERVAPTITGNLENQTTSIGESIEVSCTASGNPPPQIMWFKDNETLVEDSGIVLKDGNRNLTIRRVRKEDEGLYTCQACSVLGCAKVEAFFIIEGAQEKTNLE

Binder | Kd [nM] | koff [s⁻¹] | kon [M⁻¹ s⁻¹]
Recombinant human anosmin-1 wild-type (natural protein, UniProt P23352 25-680, looked up, anosmin-1, human, product of the ANOS1 gene; also called anosmin-1 WT; WT; source: 293 T cells (pSecTag2 vector), conditioned media, purified (HisTrap HP column, PD-10 column)) AGPGAAAARRLDESLSAGSVQRARCASRCLSLQITRISAFFQHFQNNGSLVWCQNHKQCSKCLEPCKESGDLRKHQCQSFCEPLFPKKSYECLTSCEFLKYILLVKQGDCPAPEKASGFAAACVESCEVDNECSGVKKCCSNGCGHTCQVPKTLYKGVPLKPRKELRFTELQSGQLEVKWSSKFNISIEPVIYVVQRRWNYGIHPSEDDATHWQTVAQTTDERVQLTDIRPSRWYQFRVAAVNVHGTRGFTAPSKHFRSSKDPSAPPAPANLRLANSTVNSDGSVTVTIVWDLPEEPDIPVHHYKVFWSWMVSSKSLVPTKKKRRKTTDGFQNSVILEKLQPDCDYVVELQAITYWGQTRLKSAKVSLHFTSTHATNNKEQLVKTRKGGIQTQLPFQRRRPTRPLEVGAPFYQDGQLQVKVYWKKTEDPTVNRYHVRWFPEACAHNRTTGSEASSGMTHENYIILQDLSFSCKYKVTVQPIRPKSHSKAEAVFFTTPPCSALKGKSHKPVGCLGEAGHVLSKVLAKPENLSASFIVQDVNITGHFSWKMAKANLYQPMTGFQVTWAEVTTESRQNSLPNSIISQSQILPSDHYVLTVPNLRPSTLYRLEVQVLTPGGEGPATIKTFRTPELPPSSAHRSHLKHRHPHHYKPSPERY | 32 | 0.0011 | 35000
Recombinant human anosmin-1 Δ2–4 deletion mutant (domain or fragment, secreted from 293T cells (pSecTag2; vector signal and His tag left out), likely N-glycosylated; cysteine box + WAP + first FnIII kept, FnIII 2-4 and His-rich region deleted; C-terminal limit taken …) AGPGAAAARRLDESLSAGSVQRARCASRCLSLQITRISAFFQHFQNNGSLVWCQNHKQCSKCLEPCKESGDLRKHQCQSFCEPLFPKKSYECLTSCEFLKYILLVKQGDCPAPEKASGFAAACVESCEVDNECSGVKKCCSNGCGHTCQVPKTLYKGVPLKPRKELRFTELQSGQLEVKWSSKFNISIEPVIYVVQRRWNYGIHPSEDDATHWQTVAQTTDERVQLTDIRPSRWYQFRVAAVNVHGTRGFTAPSKHFRSSKDP | 1400 | 0.046 | 34000
